IntAct's records for PubMed 15226396

B1: Tyrosine-protein phosphatase non-receptor type 1 (Gallus gallus (Chicken)), O13016 (parent)
chain: MEIEKEFHRLDQAASWAAIYQDIRHEASDFPCKVAKHPRNKNRNRYRDVSPFDHSRIKLNQGDNDYINASLIKMEEAQRSYILTQGPLPNTCGHFWEMVWEQKSRGVVMLNRVMEKGSIKCAQYWPRKEEKEMFFEDTNLKLTLISEDIKSYYTVRQLELENLTTQETREILHFHYTTWPDFGVPESPASFLNFLFKVRESGSLNPEYGPVVVHCSAGIGRSGTFCLVDTCLLLMDKRKDPSSVDVKQVLLEMRKYRMGLIQTADQLRFSYLAVIEGAKFIMGDASVQEQWKELSNEDLDPPPEHTPPPPRPPKRTSEMHNGRMHEHAEFFPKHQVVEEEIRCSVSTAEETVSDGRVFSSVPLITDSTSQDTEIRRRTVGENLHVTAHKEESKSESVEEDDENMMTTWKPFLVNICMFTFLTAGAYLCYRVCFH

Variants of: B1
Settings: with fer_human FER

Row | Variant | effect of a mutation on the interaction
1 | MEIEKEFHRLDQAASWAAIYQDIRHEASDFPCKVAKHPRNKNRNRYRDVSPFDHSRIKLNQGDNDYINASLIKMEEAQRSYILTQGPLPNTCGHFWEMVWEQKSRGVVMLNRVMEKGSIKCAQYWPRKEEKEMFFEDTNLKLTLISEDIKSFYTVRQLELENLTTQETREILHFHYTTWPDFGVPESPASFLNFLFKVRESGSLNPEYGPVVVHCSAGIGRSGTFCLVDTCLLLMDKRKDPSSVDVKQVLLEMRKYRMGLIQTADQLRFSYLAVIEGAKFIMGDASVQEQWKELSNEDLDPPPEHTPPPPRPPKRTSEMHNGRMHEHAEFFPKHQVVEEEIRCSVSTAEETVSDGRVFSSVPLITDSTSQDTEIRRRTVGENLHVTAHKEESKSESVEEDDENMMTTWKPFLVNICMFTFLTAGAYLCYRVCFH [Y152F] | disrupting interaction
2 | MEIEKEFHRLDQAASWAAIYQDIRHEASDFPCKVAKHPRNKNRNRYRDVSPFDHSRIKLNQGDNDYINASLIKMEEAQRSYILTQGPLPNTCGHFWEMVWEQKSRGVVMLNRVMEKGSIKCAQYWPRKEEKEMFFEDTNLKLTLISEDIKSYYTVRQLELENLTTQETREILHFHYTTWPDFGVPESPASFLNFLFKVRESGSLNPEYGPVVVHSSAGIGRSGTFCLVDTCLLLMDKRKDPSSVDVKQVLLEMRKYRMGLIQTADQLRFSYLAVIEGAKFIMGDASVQEQWKELSNEDLDPPPEHTPPPPRPPKRTSEMHNGRMHEHAEFFPKHQVVEEEIRCSVSTAEETVSDGRVFSSVPLITDSTSQDTEIRRRTVGENLHVTAHKEESKSESVEEDDENMMTTWKPFLVNICMFTFLTAGAYLCYRVCFH [C215S] | disrupting interaction
